Molecular target: HLA-B*44:05 (Homo sapiens, UniProt P01889, A223V/A65T/A93T/A95T/D201E/D98Y/E176V/E187L/E204Q/E69K/G107R/H137Y/K202T/L105A/L119I/N104T/N87E/Q56L/Q94N/R106L/R155S/R180D/S101N/S121R/S35A/S48T/T118I/V36M/W191S/Y91S)
Test: MHC binding assay (UV-ligand exchange, beta2m ELISA)
Conditions: binding to HLA-B*44:05, ranged by peptide exchange yield
Text: (§1) Candidate peptides for T cell based therapies according to the present invention were further tested for their MHC binding capacity (affinity). The individual peptide-MHC complexes were produced by UV-ligand exchange, where a UV-sensitive peptide is cleaved upon UV-irradiation and exchanged with the peptide of interest as analyzed. Only peptide candidates that can effectively bind and stabilize the peptide-receptive MHC molecules prevent dissociation of the MHC complexes. To determine the yield of the exchange reaction, an ELISA was performed based on the detection of the light chain (β2m) of stabilized MHC complexes. The assay was performed as generally described in Rodenko et al. (Rodenko et al., 2006).
(§2) 96 well MAXISorp plates (NUNC) were coated over night with 2 μg/ml streptavidin in PBS at room temperature, washed 4× and blocked for 1 h at 37° C. in 2% BSA containing blocking buffer. Refolded HLA-A*02:01/MLA-001 monomers served as standards, covering the range of 15-500 ng/ml. Peptide-MHC monomers of the UV-exchange reaction were diluted 100-fold in blocking buffer. Samples were incubated for 1 h at 37° C., washed four times, incubated with 2 μg/ml HRP conjugated anti-β2m for 1 h at 37° C., washed again and detected with TMB solution that is stopped with […]. Absorption was measured at 450 nm. Candidate peptides that show a high exchange yield (preferably higher than 50%, most preferred higher than 75%) are generally preferred for a generation and production of antibodies or fragments thereof, and/or T cell receptors or fragments thereof, as they show sufficient avidity to the MHC molecules and prevent dissociation of the MHC complexes.

Substance | Peptide exchange
75 (QEVDISLHY) [compound 75] | ++++ (≥75% = ++++)
113 (TDFTKIASF) [compound 113] | ++++ (≥75% = ++++)
109 (DETAAYKIM) [compound 109] | +++ (≥50% = +++)
74 (LENMYDLTF) [compound 74] | ++++ (≥75% = ++++)
108 (DETHTLQF) [compound 108] | ++++ (≥75% = ++++)
111 (GEYRCQTDL) [compound 111] | ++++ (≥75% = ++++)
78 (DETIWYVRF) [compound 78] | ++++ (≥75% = ++++)
110 (AESLAVHDI) [compound 110] | +++ (≥50% = +++)
44 (KENQDHSYSL) [compound 44] | ++++ (≥75% = ++++)
112 (AEFFDYTVRTL) [compound 112] | ++++ (≥75% = ++++)
73 (DESKYTWSW) [compound 73] | ++++ (≥75% = ++++)
46 (KEVDDTLLVNEL) [compound 46] | ++++ (≥75% = ++++)
15 (TEGDFTKEASTY) [compound 15] | +++ (≥50% = +++)
77 (KPREEQYDSTY) [compound 77] | ++++ (≥75% = ++++)

Molecular target: HLA-A*01:01 (Homo sapiens, UniProt P04439, A114D/A174V/A182V/D101N/D185E/E176A/E190D/L180R/Q94H/R68K/S129P/T187R/V100A/V91M/W191G)
Test: as above
Conditions: binding to HLA-A*01:01, ranged by peptide exchange yield
Text: as §1, §2

Substance | Peptide exchange
4 (YIDDVTLI) [compound 4] | ++ (≥20% = ++)
59 (ILFSDSTRLSF) [compound 59] | +++ (≥50% = +++)
87 (ITDDTVQTY) [compound 87] | ++++ (≥75% = ++++)
84 (EVEGVIDGTYDY) [compound 84] | ++++ (≥75% = ++++)
6 (ISDITEKNSGLY) [compound 6] | ++++ (≥75% = ++++)
80 (LTNDQTLRL) [compound 80] | +++ (≥50% = +++)
90 (HVDNSNLNY) [compound 90] | ++++ (≥75% = ++++)
88 (WLDRSTILY) [compound 88] | ++++ (≥75% = ++++)
93 (HADLTTLTF) [compound 93] | ++ (≥20% = ++)
13 (TANYDTSHY) [compound 13] | ++ (≥20% = ++)
10 (QVDGSLLVI) [compound 10] | ++ (≥20% = ++)
34 (LSDLSLADI) [compound 34] | ++ (≥20% = ++)
58 (GTDQTGKGLEY) [compound 58] | +++ (≥50% = +++)
7 (VTRDDTASY) [compound 7] | ++ (≥20% = ++)
91 (GVDDTSLLY) [compound 91] | ++++ (≥75% = ++++)
79 (FTDTSSYEY) [compound 79] | ++++ (≥75% = ++++)
83 (TFVDASRTLY) [compound 83] | ++++ (≥75% = ++++)
11 (NHITDTSLNLF) [compound 11] | ++ (≥20% = ++)
37 (RSLDCTVKTY) [compound 37] | +++ (≥50% = +++)

Substance | Peptide exchange
20 (TSDTSQYDTY) [compound 20] | +++ (≥50% = +++)
60 (HVKDATMGY) [compound 60] | +++ (≥50% = +++)
85 (EVQDHSTSSY) [compound 85] | ++ (≥20% = ++)
51 (RVDDITDQF) [compound 51] | ++ (≥20% = ++)
81 (VTETMGIDGSAY) [compound 81] | ++++ (≥75% = ++++)
25 (FTDLITDESINY) [compound 25] | ++++ (≥75% = ++++)
82 (VTDVTEEHY) [compound 82] | ++++ (≥75% = ++++)
12 (ITDTSLNLF) [compound 12] | ++++ (≥75% = ++++)
33 (ISDGMDSSAHY) [compound 33] | ++++ (≥75% = ++++)
18 (GTDKQDSTLRY) [compound 18] | ++++ (≥75% = ++++)
52 (LTEVEKDATALY) [compound 52] | ++++ (≥75% = ++++)
94 (YSIDVTNVM) [compound 94] | +++ (≥50% = +++)
16 (VTQDDTGFY) [compound 16] | ++++ (≥75% = ++++)
50 (RSIDVTGQGF) [compound 50] | ++ (≥20% = ++)
19 (MTDVDRDGTTAY) [compound 19] | ++++ (≥75% = ++++)
89 (HVSDVTVNY) [compound 89] | ++ (≥20% = ++)
86 (ILPDITTTY) [compound 86] | ++ (≥20% = ++)
92 (GQYDDSLQAY) [compound 92] | ++ (≥20% = ++)
49 (PSDGSMHNY) [compound 49] | ++++ (≥75% = ++++)

Molecular target: HLA-B*07:02 (Homo sapiens, UniProt P01889)
Test: as above
Conditions: binding to HLA-B*07:02 ranged by peptide exchange yield
Text: as §1, §2

Substance | Peptide exchange
62 (HPDLTSMTF) [compound 62] | ++++ (≥75% = ++++)
48 (FPYYLKIDY) [compound 48] | +++ (≥50% = +++)
39 (LPFFTDKTLSF) [compound 39] | ++++ (≥75% = ++++)
107 (GEPTSDITLL) [compound 107] | +++ (≥50% = +++)
106 (SPKIFDSSW) [compound 106] | +++ (≥50% = +++)
105 (NPADISVAL) [compound 105] | ++++ (≥75% = ++++)
70 (HPFGYDLTL) [compound 70] | ++++ (≥75% = ++++)
71 (VPRNQDESV) [compound 71] | ++++ (≥75% = ++++)
21 (APFKDVTEY) [compound 21] | +++ (≥50% = +++)

Molecular target: HLA-A*24:02 (Homo sapiens, UniProt P04439, D101N/D140Y/D185E/E176V/E190D/F33S/G103R/G107R/I119L/I121M/I306V/K335N/L105A/L180Q/L300P/N151K/N90K/Q86E/Q94H/R106L/R138H/R89G/T104I/T345S/V100E/W191G/Y123F)
Test: as above
Conditions: binding to HLA-A*24:02, ranged by peptide exchange yield
Text: as §1, §2

Substance | Peptide exchange
66 (YHDQTISF) [compound 66] | + (≥10% = +)
98 (AFDKTIVKL) [compound 98] | ++ (≥20% = ++)
69 (KSYHDQTISF) [compound 69] | ++++ (≥75% = ++++)
54 (QYQDTTVSF) [compound 54] | +++ (≥50% = +++)
9 (IFDETGRF) [compound 9] | ++ (≥20% = ++)
5 (GYIDDVTLI) [compound 5] | +++ (≥50% = +++)
67 (QAIDLSLNF) [compound 67] | ++ (≥20% = ++)
99 (VYVDTTELAL) [compound 99] | ++++ (≥75% = ++++)
64 (FHYDDTAGYF) [compound 64] | + (≥10% = +)
101 (VYLDASKVPGF) [compound 101] | ++++ (≥75% = ++++)
65 (IYQFARLDY) [compound 65] | ++ (≥20% = ++)
24 (FYDNSVIIF) [compound 24] | ++ (≥20% = ++)
36 (YWDETLKEF) [compound 36] | +++ (≥50% = +++)
103 (RQDESYLNF) [compound 103] | ++ (≥20% = ++)
57 (FYDLSIQSF) [compound 57] | ++++ (≥75% = ++++)
76 (TYLPTDASLSF) [compound 76] | ++++ (≥75% = ++++)

Substance | Peptide exchange
26 (IYPDASLLIQNI) [compound 26] | ++++ (≥75% = ++++)
43 (FFTDKTLSF) [compound 43] | ++++ (≥75% = ++++)
104 (HLFYDVTVF) [compound 104] | ++ (≥20% = ++)
68 (VFDETKNLL) [compound 68] | ++ (≥20% = ++)
102 (IYPDGTLLI) [compound 102] | ++++ (≥75% = ++++)
2 (FFQDSTFSF) [compound 2] | ++++ (≥75% = ++++)
100 (EYQDFSTLF) [compound 100] | ++++ (≥75% = ++++)
97 (RYVNDYTNSF) [compound 97] | ++++ (≥75% = ++++)
55 (VYTDISHHF) [compound 55] | ++++ (≥75% = ++++)
1 (VHDFTLPSW) [compound 1] | ++ (≥20% = ++)
38 (KLTDNSNQF) [compound 38] | ++ (≥20% = ++)
95 (VYIDDSVEL) [compound 95] | ++++ (≥75% = ++++)
23 (SYDETKIKF) [compound 23] | + (≥10% = +)
45 (YFVDVTTRI) [compound 45] | +++ (≥50% = +++)
96 (IFVPTDRSL) [compound 96] | ++ (≥20% = ++)

Molecular target: HLA-A*03:01 (Homo sapiens, UniProt P04439)
Test: as above
Conditions: binding to HLA-A*03:01 ranged by peptide exchange yield
Text: as §1, §2

Substance | Peptide exchange
3 (IVRDLSCRK) [compound 3] | +++ (≥50% = +++)

— patent US11891427B2, “Amidated peptides and their deamidated counterparts displayed by non-HLA-a*02 for use in immunotherapy against different types of cancers” (Immatics Biotechnologies GmbH, priority 2020, dated 2024)
